Test results from patent US20150299258A1 (UNIVERSITY OF TOKYO, published 2015).
Positions of bridges follow the written chain, without caps; N, C: chain ends.

Tests used:
[1] = molecular target: T1, fusion protein of human VEGFR2 and Fc (human, UniProt P35968 20-764, limits assumed); test: BLI (ForteBio), VEGFR2-Fc on anti-human IgG capture biosensors, peptide in solution, 30 C
T1 construct: not shown: Fc
Method: A dissociation constant of binding between the cyclic peptide L1 or BL1 thus synthesized and human VEGFR2 or mouse VEGFR2 was determined by BLI method (ForteBio). A fusion protein of VEGFR2 and Fc was immobilized onto Anti-human IgG Capture Biosensors and the cyclic peptide L1 or BL1 varied in concentration was analyzed. The temperature was set at 30° C.

[2] = molecular target: VEGFR2 expressed by HUVEC (human, UniProt P35968 20-1356); test: cell-based or functional assay
VEGFR2 expressed by HUVEC, sequence (P35968 20-1356): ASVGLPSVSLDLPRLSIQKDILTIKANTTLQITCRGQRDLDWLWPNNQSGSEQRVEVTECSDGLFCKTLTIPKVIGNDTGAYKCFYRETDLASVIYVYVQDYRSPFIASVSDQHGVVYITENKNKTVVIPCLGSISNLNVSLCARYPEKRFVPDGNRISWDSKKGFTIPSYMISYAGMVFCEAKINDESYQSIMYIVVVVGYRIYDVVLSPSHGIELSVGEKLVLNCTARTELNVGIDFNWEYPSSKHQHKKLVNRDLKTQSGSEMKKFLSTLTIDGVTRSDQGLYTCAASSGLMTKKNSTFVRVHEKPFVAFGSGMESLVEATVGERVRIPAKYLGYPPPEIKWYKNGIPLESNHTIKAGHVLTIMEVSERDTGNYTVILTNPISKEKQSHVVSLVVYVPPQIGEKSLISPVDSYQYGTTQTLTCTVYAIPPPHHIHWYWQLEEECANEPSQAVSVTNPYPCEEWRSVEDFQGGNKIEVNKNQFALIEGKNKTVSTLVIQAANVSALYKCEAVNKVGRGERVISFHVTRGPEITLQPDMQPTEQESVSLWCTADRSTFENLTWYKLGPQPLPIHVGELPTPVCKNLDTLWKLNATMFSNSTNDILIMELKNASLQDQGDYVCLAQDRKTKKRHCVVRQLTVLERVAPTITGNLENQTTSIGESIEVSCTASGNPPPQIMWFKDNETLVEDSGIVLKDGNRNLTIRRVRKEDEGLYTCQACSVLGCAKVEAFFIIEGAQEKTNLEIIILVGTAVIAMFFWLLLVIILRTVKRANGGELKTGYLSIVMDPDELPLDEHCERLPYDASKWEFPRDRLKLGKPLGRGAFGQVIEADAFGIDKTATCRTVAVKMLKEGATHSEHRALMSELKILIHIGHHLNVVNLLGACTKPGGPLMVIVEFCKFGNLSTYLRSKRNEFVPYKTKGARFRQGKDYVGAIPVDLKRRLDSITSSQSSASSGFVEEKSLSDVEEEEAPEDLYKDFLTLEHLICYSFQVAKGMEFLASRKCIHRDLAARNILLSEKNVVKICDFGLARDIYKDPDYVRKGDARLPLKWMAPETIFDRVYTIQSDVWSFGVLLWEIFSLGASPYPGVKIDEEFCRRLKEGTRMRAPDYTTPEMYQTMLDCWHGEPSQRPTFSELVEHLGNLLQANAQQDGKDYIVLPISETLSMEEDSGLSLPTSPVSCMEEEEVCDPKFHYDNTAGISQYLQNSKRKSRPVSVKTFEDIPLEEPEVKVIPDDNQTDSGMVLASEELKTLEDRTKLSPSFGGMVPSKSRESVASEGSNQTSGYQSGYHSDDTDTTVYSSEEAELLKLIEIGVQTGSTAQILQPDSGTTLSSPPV

T1 sequence (P35968 20-764 limits assumed): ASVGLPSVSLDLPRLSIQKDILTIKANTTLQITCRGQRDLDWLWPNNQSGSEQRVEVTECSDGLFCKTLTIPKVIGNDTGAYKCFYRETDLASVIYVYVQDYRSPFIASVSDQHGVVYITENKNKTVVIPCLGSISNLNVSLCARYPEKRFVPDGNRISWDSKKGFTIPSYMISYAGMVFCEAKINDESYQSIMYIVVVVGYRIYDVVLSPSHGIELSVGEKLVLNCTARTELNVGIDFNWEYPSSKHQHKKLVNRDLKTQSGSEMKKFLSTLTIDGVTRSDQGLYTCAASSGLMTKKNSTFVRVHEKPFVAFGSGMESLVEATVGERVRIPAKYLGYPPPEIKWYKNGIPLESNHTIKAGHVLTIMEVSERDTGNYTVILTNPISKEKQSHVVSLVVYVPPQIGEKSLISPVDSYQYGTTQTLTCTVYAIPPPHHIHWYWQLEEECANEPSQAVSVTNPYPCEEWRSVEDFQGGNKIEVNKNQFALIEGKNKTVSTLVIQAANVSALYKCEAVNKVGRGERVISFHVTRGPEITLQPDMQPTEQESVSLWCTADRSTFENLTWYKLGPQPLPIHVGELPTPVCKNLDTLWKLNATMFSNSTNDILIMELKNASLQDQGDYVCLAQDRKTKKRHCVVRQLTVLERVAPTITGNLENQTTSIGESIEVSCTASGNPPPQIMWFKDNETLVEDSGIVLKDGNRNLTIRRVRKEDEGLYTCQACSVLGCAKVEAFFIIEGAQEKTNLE

Kd [1]: 94 nM | koff [1]: 0.002 s⁻¹ | kon [1]: 20000 M⁻¹ s⁻¹ | growth inhibition of HUVEC with 10 ng/mL VEGF (BrdU method), IC50 [2]: 60 nM
B1: cyclic peptide L1, synthesized: ClAc-Phe-Val-Val-Val-Ser-Thr-Asp-Pro-Trp-Val-Asn-Gly-Leu-Tyr-Ile-Asp-Cys-Gly (peptide)
peptide: {CH2CO}-FVVVSTDPWVNGLYIDCG-NH2
modifications: thioether N-17
SMILES: CC[C@H](C)[C@@H]1NC(=O)[C@H](Cc2ccc(O)cc2)NC(=O)[C@H](CC(C)C)NC(=O)CNC(=O)[C@H](CC(N)=O)NC(=O)[C@H](C(C)C)NC(=O)[C@H](Cc2c[nH]c3ccccc23)NC(=O)[C@@H]2CCCN2C(=O)[C@H](CC(=O)O)NC(=O)[C@H]([C@@H](C)O)NC(=O)[C@H](CO)NC(=O)[C@H](C(C)C)NC(=O)[C@H](C(C)C)NC(=O)[C@H](C(C)C)NC(=O)[C@H](Cc2ccccc2)NC(=O)CSC[C@@H](C(=O)NCC(N)=O)NC(=O)[C@H](CC(=O)O)NC1=O
notes: Made by Fmoc solid-phase synthesis, cyclised and HPLC purified; this form was used in BLI and in the cell assays
